Test results: patent US20240067696A1 (ZEALAND PHARMA A S, published 2024)
Non-standard residues stand in square brackets, D forms with d. Dab = NCC[C@H](N)C(=O)O; Aib = CC(C)(N)C(=O)O

B1: Compound 38 (peptide)
peptide: H-HSHGTFTSDYSKYLD[Aib]ARAEEFVKWLEST-NH2
SMILES: CC(C)C[C@H](NC(=O)[C@H](Cc1c[nH]c2ccccc12)NC(=O)[C@H](CCCCN)NC(=O)[C@@H](NC(=O)[C@H](Cc1ccccc1)NC(=O)[C@H](CCC(=O)O)NC(=O)[C@H](CCC(=O)O)NC(=O)[C@H](C)NC(=O)[C@H](CCCNC(=N)N)NC(=O)[C@H](C)NC(=O)C(C)(C)NC(=O)[C@H](CC(=O)O)NC(=O)[C@H](CC(C)C)NC(=O)[C@H](Cc1ccc(O)cc1)NC(=O)[C@H](CCCCN)NC(=O)[C@H](CO)NC(=O)[C@H](Cc1ccc(O)cc1)NC(=O)[C@H](CC(=O)O)NC(=O)[C@H](CO)NC(=O)[C@@H](NC(=O)[C@H](Cc1ccccc1)NC(=O)[C@@H](NC(=O)CNC(=O)[C@H](Cc1c[nH]cn1)NC(=O)[C@H](CO)NC(=O)[C@@H](N)Cc1c[nH]cn1)[C@@H](C)O)[C@@H](C)O)C(C)C)C(=O)N[C@@H](CCC(=O)O)C(=O)N[C@@H](CO)C(=O)N[C@H](C(N)=O)[C@@H](C)O
B2: Compound 39 (peptide)
peptide: H-HS[Dab](Ac)GTFTSDYSKYLD[Aib]ARAEEFVKWLEST-OH
SMILES: CC(=O)NCC[C@H](NC(=O)[C@H](CO)NC(=O)[C@@H](N)Cc1c[nH]cn1)C(=O)NCC(=O)N[C@H](C(=O)N[C@@H](Cc1ccccc1)C(=O)N[C@H](C(=O)N[C@@H](CO)C(=O)N[C@@H](CC(=O)O)C(=O)N[C@@H](Cc1ccc(O)cc1)C(=O)N[C@@H](CO)C(=O)N[C@@H](CCCCN)C(=O)N[C@@H](Cc1ccc(O)cc1)C(=O)N[C@@H](CC(C)C)C(=O)N[C@@H](CC(=O)O)C(=O)NC(C)(C)C(=O)N[C@@H](C)C(=O)N[C@@H](CCCNC(=N)N)C(=O)N[C@@H](C)C(=O)N[C@@H](CCC(=O)O)C(=O)N[C@@H](CCC(=O)O)C(=O)N[C@@H](Cc1ccccc1)C(=O)N[C@H](C(=O)N[C@@H](CCCCN)C(=O)N[C@@H](Cc1c[nH]c2ccccc12)C(=O)N[C@@H](CC(C)C)C(=O)N[C@@H](CCC(=O)O)C(=O)N[C@@H](CO)C(=O)N[C@H](C(=O)O)[C@@H](C)O)C(C)C)[C@@H](C)O)[C@@H](C)O
B3: Compound 40 (peptide)
peptide: H-HS[Dab](Ac)GTFTSDYSKYLD[Aib]ARAEEFVKWLEST-NH2
SMILES: CC(=O)NCC[C@H](NC(=O)[C@H](CO)NC(=O)[C@@H](N)Cc1c[nH]cn1)C(=O)NCC(=O)N[C@H](C(=O)N[C@@H](Cc1ccccc1)C(=O)N[C@H](C(=O)N[C@@H](CO)C(=O)N[C@@H](CC(=O)O)C(=O)N[C@@H](Cc1ccc(O)cc1)C(=O)N[C@@H](CO)C(=O)N[C@@H](CCCCN)C(=O)N[C@@H](Cc1ccc(O)cc1)C(=O)N[C@@H](CC(C)C)C(=O)N[C@@H](CC(=O)O)C(=O)NC(C)(C)C(=O)N[C@@H](C)C(=O)N[C@@H](CCCNC(=N)N)C(=O)N[C@@H](C)C(=O)N[C@@H](CCC(=O)O)C(=O)N[C@@H](CCC(=O)O)C(=O)N[C@@H](Cc1ccccc1)C(=O)N[C@H](C(=O)N[C@@H](CCCCN)C(=O)N[C@@H](Cc1c[nH]c2ccccc12)C(=O)N[C@@H](CC(C)C)C(=O)N[C@@H](CCC(=O)O)C(=O)N[C@@H](CO)C(=O)N[C@H](C(N)=O)[C@@H](C)O)C(C)C)[C@@H](C)O)[C@@H](C)O

Target: human glucagon receptor (human, UniProt P47871 26-477)
Sequence (P47871 26-477): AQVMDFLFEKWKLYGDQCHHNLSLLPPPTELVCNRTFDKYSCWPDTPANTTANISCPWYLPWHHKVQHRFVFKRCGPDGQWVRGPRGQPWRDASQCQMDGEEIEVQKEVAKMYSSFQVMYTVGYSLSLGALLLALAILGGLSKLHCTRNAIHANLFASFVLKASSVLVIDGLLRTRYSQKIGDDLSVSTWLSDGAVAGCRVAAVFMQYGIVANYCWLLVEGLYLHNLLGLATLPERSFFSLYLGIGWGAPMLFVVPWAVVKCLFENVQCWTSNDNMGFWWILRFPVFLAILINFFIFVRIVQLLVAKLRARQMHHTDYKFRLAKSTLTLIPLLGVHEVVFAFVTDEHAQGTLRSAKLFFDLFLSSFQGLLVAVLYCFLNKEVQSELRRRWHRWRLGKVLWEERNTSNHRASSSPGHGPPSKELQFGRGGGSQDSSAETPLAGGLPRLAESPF
Experiment: cell-based or functional assay

Binder | GCG-R EC50 in vitro [nM] (cAMP, AlphaScreen, HEK293 cells expressing human Glucagon-R)
B1 | 0.0047 nM
B2 | 0.0044 nM
B3 | 0.0035 nM
H-HSQGTFTSDYSKYLDKARAEDFVKWLEST-OH [Compound 3] | 0.03 nM
